Among the data in patent US20260167703A1 are EC50, Response (nm) and koff values, retold here.

For assay [1], the target named is DENV-2 VLP (Dengue virus serotype 2, strain Thailand/16681/84). Kind of assay: Luminex, VLP-coupled beads.
Assay [2] deals with DENV-2 E protein Domain III (Dengue virus serotype 2, strain Thailand/16681/1984). Kind of assay: BLI, mAb on AR2G biosensor, 20 ug/mL Domain III, 1200 sec. A general note: In BLI a coated tip is dipped into the sample, and binding shifts an interference pattern.
Assay [3] deals with DENV-2 VLP (Dengue virus serotype 2, strain Thailand/16681/84).
Assay [4] addresses DENV-4 E protein Domain III (Dengue virus serotype 4, strain Indonesia/1036/1976). Nature of the assay: BLI, mAb on AR2G biosensor, 20 ug/mL Domain III, 1200 sec.

Some results are limits rather than exact numbers.

B1: DENV2-3H11 (antibody, V domains shown)
VH: QSVEESGGRLVTPGTPLTLTCTVSGFSLINYDMSWIRQAPGKGLEWIGMVSGGGHTNYASWANGRFTISKTSSTTMDLKITSPTTEDTASYFCGRWDIWGPGTLVTVSL
VL: AVVVTQTASPVSAAVGGTVTISCQSSQSVYDDNWLAWYQQKPGQPPKQLIYRASRLASGVPSRFSGTGSGTQFTLTISGVQCDDAATYYCLGGYVDDGDTTFGGGTEVVVK
With B1, the EC50 (in general, the concentration giving half of the maximal effect) in assay [1] is 0.0354 µg/mL. Besides, in assay [2], the Response (nm) is -0.00452 nm. Also, in assay [3], the Response (nm) turned out to be 2.02 nm and the koff (in general, a measure of how fast the partners let go of each other) is below 2e-05 s⁻¹.

B2: DENV4-7D5 (antibody, V domains shown)
VH: QSVEESGGRLVTPGTPLTLTCTVSGIDLSSWEMGWVRQAPGKGLEWIGIIFPSGTIYYANWAKGRFAISKASTTVDLKITSPTTEDTATYFCGRHGGSLYLNIWGPGTLVTVSL
VL: AQVLTQTPSPVSAAVGGTVTINCQASQSVYVNRNLAWYQQKPGQPPKVLIYEASKLASGVPSRFKGSGSGTQFTLTISGVQCDDAATYYCQGEFGCSSADCIAFGGGTEVVVK
In the case of B2, the Response (nm) in assay [4] is -0.007 nm.

B3: DENV4-8C7 (antibody, V domains shown)
VH: QSVEESGGRLVTPGTPLTLTCTVSGIDLSSYEMGWVRQAPGKGLEWIGIIFPSGTIYYANWAKGRFTISKTSTTVDLKITSPTTEDTATYFCGRHGGSLYLNIWGPGTLVTVSL
VL: AQVLTQTPSPVSAAVGGTVTINCQASQSVYVNRNLAWYQQKPGQPPKVLIYEASKLASGVPSRFKGSGSGTQFTLTISGVQCDDAATYYCQGEFGCSSADCIAFGGGTEVVVK
Turning to B3, the Response (nm) in assay [4] was -0.014 nm.

B4: DENV4-7F2 (antibody, V domains shown)
VH: QSVEESGGRLVTPGTPLTLTCTVSGIDLSYYAMGWVRQAPGEGLECIGFIDTGDSAYYASWAKGRFTISKTSSTTVDLKITSPTPEDTATYFCGRSLSSYYDWDAFDPWGPGTLVTVSS
VL: AYDMTQTPASVEVAVGGTVTINCQASQTIGNLLAWYQQKPGQRPKLLIYRASTLASGVPSRFKGSGSGTQFTLTISGVECADAATYYCQQGASANDIDNSFGGGTAVVVK
With B4, the Response (nm) in assay [4] is -0.005 nm.

B5: DENV4-10A11 (antibody, V domains shown)
VH: QSVEESGGRLVTPGTPLTLTCTVSGINLSFYAMGWVRQAPGKGLECVGFIDTDNSAYYASWAKGRFTISKTSTTVDLKITSPTTEDTATYFCARSLSSFYDWDAFDPWGPGTLVTVSS
VL: AYDMTQTPASVEVAVGGTVTIKCLASQSISNLLAWYQQKPGQRPKLLIYRASTLASGVPSRFKGSGSGTQFTLTISGVECADAATYYCQQGASNSDIDNAFGGGTEVVVK
On to B5, for which the Response (nm) in assay [4] was 0.012 nm.

B6: DENV4-9G8 (antibody, V domains shown)
VH: QSLEESGGGLVKPGASLTLTCTASGFSFSYRYWMSWVRQAPGKRPEWIACIDTGNGDTYYASRAKGRFTIMKTSSTTVTLQMTSLTVADTATYFCARSDVTLTGYGYGNLWGPGTLVTVSS
VL: DSVMTQTPASVSEPVGGTVTINCQASHNIYNSLAWYQQKPGQPPKLLIYRASTLESGVPSRVKGSGYGTEYTLTISDLECADAATYYCQQYYGGDDDGFGFGGGTEVVVK
Consider B6, for which the Response (nm) in assay [4] was found to be 0.264 nm.

B7: DENV4-5B11 (antibody, V domains shown)
VH: QSVEESGGRLVTPGTPLTLTCTVSGFSLSDSAMSWVRQAPGKGLEWIGYIYAGSGTTYYASWAKGRFTISKTSTTVDLKITSPTTEDTATYFCARATAYVGYGYGDDTFDPWGPGTLVTVSS
VL: AYDMTQTPASVEVAVGGTVTIKCQASQSISSYLSWYQQKPGQRPKLLIYRASTLASGVSSRFKGSGSGTEFTLTISGVQCDDAATYYCQQGYSNSDVDNVFGGGTEVVVK
With B7, the Response (nm) in assay [4] was 0.02 nm.

B8: DENV4-7G4 (antibody, V domains shown)
VH: QSVEESGGRLVTPGTPLTLTCTVSGFSLSSCAMTWVRQAPGKGLEWIGYIYVDSDTTYYASWAKGRFTISTTSTTVDLRITSPTTEDTATYFCARTTAYVGGGYGDDTFDPWGPGTLVTVSS
VL: DVVMTQTPASVEAAVGGTVTINCQASQNINSYLSWYQQKPGQRPKLLIYRAFTLASGVSSRFKGSGSGTQFTLTISGVECADAATYYCQQGYSFSGVDNVFGGGTEVVVK
As to B8, the Response (nm) in assay [4] was -0.001 nm.

B9: DENV2-8D8 (antibody, V domains shown)
VH: QSLEESGGRLVKPDETLTLTCTVSGIDLSSTIITWVRQAPGKGLEYIGIIGSSGSIISANWAKGRFTISRTSTTVDLKMTSLTTEDTATYFCARIAWSTGRNDIWGPGTLVTVSS
VL: AAVLTQTPPSVSAAVGGTVTISCQSSQSVYNNNALSWYQQKPGQPPKLLIYLASNLASGVPSRFSGSGSGTQFTLTISGVQCDDAATYHCLGVDDDDVDNTFGGGTEVVVK
With B9, the concentration for a half-maximal effect (EC50) in assay [1] is 0.011 µg/mL. Besides, the Response (nm) in assay [2] was found to be 0.0246 nm. In addition, in assay [3], the Response (nm) turned out to be 0.756 nm and the off-rate constant (koff) is below 2e-05 s⁻¹.

B10: DENV2-5F4 (antibody, V domains shown)
VH: QSVEESGGRLVKPDETLTLTCTVSGIDLSNTVISWVRQAPGKGLEYIGMITPSGSAYSATWAKGRVTISRTSTTVDLKIASPTTEDTATYFCARIAWSTGRNDIWGPGTLVTVSS
VL: AAVLTQTPPSVSAAVGGTVTIKCQSSQSVYNNNALSWYQQKPGQPPKLLIYQASKLSSGVSSRFSGSGSGTHFTLTISGVQCDDAATYYCLGIYDDDVDNTFGGGTEVVVG
As to B10, in assay [1], the EC50 was determined as 0.0095 µg/mL. In addition, the Response (nm) in assay [2] amounted to 0.0206 nm; in assay [3], 1.5 nm. The molecule further gave a koff in assay [3] below 2e-05 s⁻¹.
